Test results published in article PMC12774660 (Nucleic Acids Research, 2026).

Biological target: T1, CPSF73 (human, UniProt Q9UKF6 1-684)
T1 sequence: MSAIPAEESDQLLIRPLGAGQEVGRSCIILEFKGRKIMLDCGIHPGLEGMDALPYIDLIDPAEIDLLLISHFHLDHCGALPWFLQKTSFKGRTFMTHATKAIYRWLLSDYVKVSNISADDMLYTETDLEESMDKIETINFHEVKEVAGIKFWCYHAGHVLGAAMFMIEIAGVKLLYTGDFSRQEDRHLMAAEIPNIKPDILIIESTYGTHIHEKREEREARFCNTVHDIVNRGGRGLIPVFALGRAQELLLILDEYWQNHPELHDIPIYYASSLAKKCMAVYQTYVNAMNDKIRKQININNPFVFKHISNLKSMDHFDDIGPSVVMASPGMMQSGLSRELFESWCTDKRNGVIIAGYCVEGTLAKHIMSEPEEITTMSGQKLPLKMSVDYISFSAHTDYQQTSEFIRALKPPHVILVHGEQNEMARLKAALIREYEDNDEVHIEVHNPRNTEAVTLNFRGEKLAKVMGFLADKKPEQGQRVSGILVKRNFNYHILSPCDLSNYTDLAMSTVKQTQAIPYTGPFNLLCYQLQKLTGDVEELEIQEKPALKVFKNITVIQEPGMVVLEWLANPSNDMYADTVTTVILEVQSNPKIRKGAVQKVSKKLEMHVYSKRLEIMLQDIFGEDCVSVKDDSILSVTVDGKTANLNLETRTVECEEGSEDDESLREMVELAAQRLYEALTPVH
Assay: cell-based or functional assay

cleavage activity of the U7 snRNP with sextuple mutant Lsm11 toward the H2a* substrate, compared to the wild-type, in the absence of SLBP: ~3 fold lower
B1: Lsm11 R109E/I110A/R112E/L113A/R114E/L116A (natural protein, human, UniProt P83369 1-360, looked up)
chain: MEERERGARSAGAGSPARPPSPRLDVSSDSFDPLLALYAPRLPPIPYPNAPCFNNVAEYESFLRTGVRGGGRGRGRARGAAAGSGVPAAPGPSGRTRRRPDAPAPDPEEAQEAERAMVAKEEGDGAAGAGRRGPGRSRKAPRNVLTRMPLHEGSPLGELHRCIREGVKVNVHIRTFKGLRGVCTGFLVAFDKFWNMALTDVDETYRKPVLGKAYERDSSLTLTRLFDRLKLQDSSKKEADSKSAVEDSTLSRYSQTSTWKLASVWGRADTGRGSHKRSRSVPSSLQASAREESRSELSGRTTRTDGSSVGGTFSRATTLSRGQSRKKKRKPKVDYQQVFTRHINQIFIRGENVLLVHLAQ
